Laboratory results published in patent publication US20120283173A1 (UNIVERSITATSKLINIKUM HAMBURG EPPENDORF, published 2012).

T1: Pseudomonas aeruginosa lectin PA-IL (Pseudomonas aeruginosa, UniProt Q05097 2-122)
T1 sequence (looked up): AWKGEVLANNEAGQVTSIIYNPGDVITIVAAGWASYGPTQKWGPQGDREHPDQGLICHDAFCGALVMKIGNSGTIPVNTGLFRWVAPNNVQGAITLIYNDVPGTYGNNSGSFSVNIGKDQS


Legend:
[1] = target: T1, Pseudomonas aeruginosa lectin PA-IL; assay: cell-based or functional assay
[2] = target: Pseudomonas aeruginosa lectin PA-IIL (Pseudomonas aeruginosa); assay: cell-based or functional assay

Binder	IC50 of inhibition of the PA-IL-induced decrease of ciliary beat frequency (CBF) [1]	IC50 of inhibition of the PA-IIL-induced decrease of ciliary beat frequency (CBF) [2]
TVFHFRLL [peptide sHNK-1 (scrambled version of pHNK-1)]	0.968 mM	
FLHTRLFV [HNK-1 mimetic peptide pHNK-1]	0.484 mM	0.968 mM
